Test: soluble on expression in E. coli; label from the status in PepcDB or PDB records

Row | Sequence | soluble on expression in E. coli
1 | GPGSMSASGSGVAAIYGRAEEAQNAPVKLQPVPAFELYKAAREEELCSYRSLCRVLCMHSGGKLTKQQRRILEDMREELCLPTERAEAELAAAREDVLVTSVAASGVLKRRQDFFDGVTDVPLDTLSYAESAKDDNNSLYVAQTKVARTEQIVGGVHGRHAAPSKMSIREIHKNLERIGREVAATSSKLLYCTSVVDQQAYRNVLQQKREQLQAMLREVEDAPPDMSGIASVMPSEHVY | soluble
2 | GPGSMSEEHANDSTLRVKVATINDKGEEVYASSLSHDGTYLAAVFGDGALVIFNPSTFSALDSSAAGKGYDNVPCTAVQWLESSEGGLYRLVSVSSAGGVFIWQWDGAALHRTNRVPEKGNEITCLAVSPECDMFITAGSDRTVRLYDADGTLKANLQMAHDESGVSRLAHTSRIFSVRFVSQGVAVSGGWGGPLQVWDLKANEARVEIRGAQVSSDGIELITGTNCVLVASRRQKEQLQVFDCVSGQELADDSARLSMALGELIPLSSRLCKTSGLVWTITSSPSKVLVTSYSTGQLIASYDSAYDLMNISIFEGLPNNAYISCAEGKLLFATVKQ | not soluble
3 | GPGSMSFYRTKKVIINSLFSDSSWYCTFRFRNPMTSQRRSCHEGIPSGRVTGNSVTLLSEMRENNAIGVEAVGKERKRPDAMTVLSNVFRTNPAALRLHRELTICIASGETERASDLASVLAGLVKRTTRLDDIEQKCAEEGGRSKVPNDPVPVVGEETVEFLTSNVVRGVSSQSRLESIEILHNDAPGAPYLGEKVAEAAEVKDSEPLPFWKNPDALRLTLLESAFEMALADDNENPLQPGSVEADCLEKERMEILDAYLKREGKRWELQKAAVARAIVATVKDLGVVPEDIHAALQAEGELRLNGSDKRFNVLKHCNIIVRGEVPEVMELQMKGTATRNVEASVSQELDVLINRMSSTGTPLSQRDKDLALFELVMSKSKMRYVVGLHRELQVALDTAPALRKLAVEHRAKSGSVLFVERALKMLNKVAPDGSETTAEDVECIDTISTPVLPFTFMLKMCLWFEAPVAM | not soluble
4 | GPGSMSHKRPQSSAGESNGAVDLKTPRFDPVSLGLPAEFQLTDYTRLKGCSCKLPQPKLLALLQELSATPGQKDVGMDCSIVPLHHTNSKGEALFLVSTTDFFFPSVSDPFLQGQIGAANVLSDLYSMGIPDCDTMLMLLAASTEMDEHERLITTREIMKGFAERARLATTTVTGGQTVMNPWPLIGGVAMAVVSEAEMVRPTGLLCAGDILVLTKPLGCQVAVNLKQWLLRPSPLYEEAIAGHISPEEIEELYNMATDSMRRLNREGARLMRKHGAHGATDVTGFGILGHANNFGAAQAVGDAPRSLCLVLERLPMFKTAVAASKQMNDKYRLLEGYSAETSGGLLVAFPSTTAAAAFCAELTAVDGGCPSWIVGHVEDRATNAVDGVYARLKDGYEIVEV | soluble
5 | GPGSMSLKVNILGHEFSNPFMNAAGVLCTTEEDLRRMTESESGSLIGKSCTLAPRTGNPEPRYFGLPLGSINSMGLPNLGVDFYLSYAAQTHDYSRKPLFLSMSGLSVEESVEMVKKLAPITKEKGTILELNLSCPNVPGKPQVGYDFDTTRTYLQKVSEAYGLPFGVKMPPYFDIAHFDMAAAVLNDFPLVKFITCVNSIGNGLVIDPANETVVIKPKQGFGGLGGKYVLPTALANVNAFFRRCPDKLVFGCGGVYSGEEAFLHILAGASMVQVGTALHDEGPIIFARLNKELQEIMTNKGYKTLDEFRGRVKTMD | soluble
6 | GPGSMSSEHGEILRLWEKLRTIEDRTEEQVAMPSSKKTAYAHKYPMVDKLMHLIEPKFANLVRTPSVSRVVQSMIKYGSAEQVNRLLKWVSKDFSTYATDAYAHFVVCALVRHVPHEAYSKLMTHVIPSVPQLVAHKFGIEVLHSVYSSRWCSPADRSLLLLAVFKDNVAVMRRWPGYPEVEAVLKKNPSLQRRLLSRLFDLSDKLVSQKEAIGYPFVQRLVGTYVRCGTRDEVSELCDTLRPHITAISATREGAPLASLAFSLTEPKKRKEVLHSFNAQLGELCTSKYAAPVIARLFDLLYDAQMLRKYVASDLAEHIGQVVNSPYGYQILMHLLTPHEERKRRFLLPNWQEHNLFSMENKEWNHHTWLTPAFVPETVEICSKPAVTSHLAALPMLVKAFLQYVTDEAHSAKLNRHHAALIAREVLHVVQHEPLYKAAIQLSEDEEHALSKLAPAHGKREREDAAGEVETYAAAPTKCPKRENGSQKAAALTPADKRKKTKVPTVISAAAPLEGRRVKTDAKKRVKKS | soluble
7 | GPGSMSTSAYRVASLLRQENNKLCSDKEKNTLARLTRDVEAFLDHAADVPPVVMETPYDDGETDLMEVHLSVVAGVLEPCEPASDVTAVDGVFMPTAKNHVAMDRKRVREAQAMLNLLGALSTDCNMPTASVAAATRCRLSLGSGEKADFESDDESIAVFDADELENDTSSSDGESNVHGRPPPRILELN | soluble
8 | GPGSMVEVPRNFRLLQELEAGEKGTGVSQSVSIGLSGMDDIYMHNWNGTILGPPGTTFENRILSLEIHCDEHYPKRPPNIKFISRVNLPCVSSDGTVDKNKFAVFKTWDRNFTMAHCLMELRREMSLPANKKLPQPEEGSTY | soluble
9 | GPGSMVTTDINRDPVKRAMEDGTWRPGQKTAPQQQPQSLGVQCVAAPPQQAPCVPPLLVQYVPAPQAQYTPQPQLMQYVPQQPPQGYYQPRPPLPQPSYYPPGPPPPLQSGYYQQPPVPIQQVYYTQPPSQCYAPQPQYQY | not soluble
10 | GPLGSHMSQAVQTNGTQPLSKTWELSLYELQRTPQEAITDGLEIVVSPRSLHSELMCPICLDMLKNTMTTKECLHRFCADCIITALRSGNKECPTCRKKLVSKRSLRPDPNFDALISKIYPSRDEYEAHQERVLARINKHNNQQALSHSIEEGLKIQAMNRLQRG | soluble
11 | GPLGSPEFISLTSIPSLREQQHPLIRQLADCIEEVWHQHLDLSPYHLPAELGYVEGRLEGEKLTIENRCYQTPQFRKMHLELAKVGNMLDILHCVMFPRPEYDLPMFGCDLVGGRGQISAAIADLSPVHLDRTLPESYNSALTSLNTLNFSQPRELPEWGNIFSDFCIFVRPSSPEEEAMFLGRVREFLQVHCQGAIAASPVSAEQKQQILAGQHNYCSKQQQNDKTRRVLEKAFGVDWAENYMTTVLFDLPE | soluble
12 | GPLGSPLIGEIGPETYSDYMSAGIPLAYIFAETAEERKELSDKLKPIAEAQRGVINFGTIDAKAFGAHAGNLNLKTDKFPAFAIQEVAKNQKFPFDQEKEITFEAIKAFVDDFVAGKIEPSIKSEPIPEKQEG | soluble
13 | GPLGSSAVTITLKTLQQQTFKIRMEPDETVKVLKEKIEAEKGRDAFPVAGQKLIYAGKILSDDVPIRDYRIDEKNFVVVMVTKTKAGQGTSAPPEASPTAAPESSTSFPPAPTSGMSHPPPAAREDKSPSEESAPTTSPESVSGSVPSSGSSGREEDAASTLVTGSEYETMLTEIMSMGYERERVVAALRASYNNPHRAVEYLLTGIPGSPEPEHGSVQESQVSEQPATEAAGENPLEFLRDQPQFQNMRQVIQQNPALLPALLQQLGQENPQLLQQISRHQEQFIQMLNEPPGELADISDVEGEVGAIGEEAPQMNYIQVTPQEKEAIERLKALGFPESLVIQAYFACEKNENLAANFLLSQNFDDE | soluble
14 | GPLGSSMEDHDDHLRRKFMEFPYVSPTRKQLMVDLMSTVENRLQSQLLPCNLPPDVRNFNNPNGSAEASLHIRSGDKSSPIDFVIGSWIHCKIPTGVSLNITSISGFLNSSTKAPNFVVELIQSSSKSLVLILDLPHRKDLVLNPDYLKEYYQDTALDSHRQSLLKLPEVNPYVSPSLFVRSAFSPTASMLKIDAEEEDKLEEILRDHVSPAAKEVLEVWLERCVKEEEEKIVVGEEERMELERRDKSFRRKSIEDDLDLQFPRMFGEEVSSRVVHAIKEAFGVL | soluble
15 | GQDRFVYTCNECKHHVETRWHCTVCEDYDLCINCYNTKSHTHKMVKWGLGLD | soluble
16 | GQEPENQTLETILNRKSVRKYKDRPVEKEKIDKLIRAGMAAPSSRDRRPWEFIIVTDRKALDTMAEGLPFARMLKETRQAIVVCGDTIKSSNAWFLDCSAASQNLLLAAESMGLGAVWTAVYPYPDRIEIVRKELRLPDHIMPLNVIPVGYPMQKETPKNKYNVQQIHHNGW | soluble
17 | GRTVVVLGGGISGLAASYHLSRAPCPPKVVLVESSERLGGWIRSVRGPNGAIFELGPRGIRPAGALGARTLLLVSELGLDSEVLPVRGDHPAAQNRFLYVGGALHALPTGLRGLLRPSPPFSKPLFWAGLRELTKPRGKEPDETVHSFAQRRLGPEVASLAMDSLCRGVFAGNSRELSIRSCFPSLFQAEQTHRSILLGLLLGAGRTPQPDSALIRQALAERWSQWSLRGGLEMLPQALETHLTSRGVSVLRGQPVCGLSLQAEGRWKVSLRDSSLEADHVISAIPASVLSELLPAEAAPLARALSAITAVSVAVVNLQYQGAHLPVQGFGHLVPSSEDPGVLGIVYDSVAFPEQDGSPPGLRVTVMLGGSWLQTLEASGCVLSQELFQQRAQEAAATQLGLKEMPSHCLVHLHKNCIPQYTLGHWQKLESARQFLTAHRLPLTLAGASYEGVAVNDCIESGRQAAVSVLGTEPNS | soluble
18 | GSDTPSNLMGKQQWKALVEEAIHSDWVKFRFQAAKNTWGKVFHNEVFSSIEKDGETYRANQYLFALEQLDATNIFDQYVIESMIKMLESGELNDPVAINIAQSSLSQPSFIRWTTNMLEKHSKVASKLHFEIPEECFIDHPHHTALLCNAIRQSGAEFGVDNYGRNFQSLEYIQEFRPNYVKLDYLFTHNLHDEKQKFTLTSISRTAHNLGITTIASRIETQIQLDFLTEHFVEVFQGFIVDKE | not soluble
19 | GSELETAMETLINVFHAHSGKEGDKYKLSKKELKELLQTELSGFLDAQKDADAVDKVMKELDEDGDGEVDFQEYVVLVAALTVACNNFFWENS | soluble
20 | GSFTEGWVRFSPGPNAAAYLTLENPGDLPLRLVGARTPVAERVELHETFMREVEGKKVMGMRPVPFLEVPPKGRVELKPGGYHFMLLGLKRPLKAGEEVELDLLFAGGKVLKVVLPVEAR | soluble
21 | GSGATSAAGKPQETFLDFNESPYGPSAKARAAMQRAAALCGRYDYDAQDALVGLFAKQNGIPAECVHAYCGSRQPLQYAVAAFTGKERGLVIADPSYDSVVGAAQAQGAKVAAVPLDAEAAHDIERMLAAAQRDAGLIYICNPNNPTGTLTPHERIVRAIERKPERSVVLVDEAYIHFSDAPSVVGLAVQRQDVLVLRTFSKLYGMAGARLGLAIGHPQLLARLERFGGHNVVPSPTAHAGLESLRDDDLVPRRKQQNAEVRERTIAWLRQQGFRCTASQSNCFMVDMRRPAELVIAELEKQRVHVGRPWASWPNWVRVTVGSEEEMQAFR | not soluble
22 | GSGEAKPQAPELRIFPKKMDAELGQKVDLVCEVLGSVSQGCSWLFQNSSSKLPQPTFVVYMASSHNKITWDEKLNSSKLFSAMRDTNNKYVLTLNKFSKENEGYYFCSVISNSVMYFSSVVPVLQKVNSTTTKPVLRTPSPVHPTGTSQPQRPEDCRPRGSVKGTG | soluble
23 | GSGMRFYVKDHRNKAMINLHIQKDNPKIVHAFDMEDLGDKAVYCRCWRSKKFPFCDGAHTKHNEETGDNVGPLIIKKKET | soluble
24 | GSGNRTRKRRMINASVWMPPMENEEKNRKNHQSITSSQHSLLEASYDGYIKRQRNELQHYSLYPNPQGYGNGNDFLGDFNHTNLQIPTEPEPESPIKLHTEAAGSYAITEPITRESVNIIDPRHNRTVLHWIASNSSAEKSEDLIVHEAKECIAAGADVNAMDCDENTPLMLAVLARRRRLVAYLMKAGADPTIYNKSERSALHQAAANRDFGMMVYMLNSTKLKGDIEELDRNGMTALMIVAHNEGRDQVASAKLLVEKGAKVDYDGAARKDSEKYKGRTALHYAAQVSNMPIVKYLVGEKGSNKDKQDEDGKTPIMLAAQEGRIEVVMYLIQQGASVEAVDATDHTARQLAQANNHHNIVDIFDRCRPERE | soluble
